According to the supplement of paper PMC7877785:
± gives the uncertainty stated by the source.

Assay: self-splicing fitness, log relative to wild type (ln ratio); higher = more splicing; Tetrahymena group I intron in knt gene, E. coli kanamycin selection, DiMSum; sequences stand for … in CUCUCU…GGAGGGAAAAGUUAUCAGGCAUGCACCUGGUAGCUAGUCUUUAAACCAAUAGAUUGCAUCGGUUUAAAAGGCAAGACCGUCAAAUUGCGGGAAAGGGGUCAACAGCCGUUCAGUACCAAGUCUCAGGGGAAACUUUGAGAUGGCCUUGCAAAGGGUAUGGUAAUAAGCUGACGGACAUGGUCCUAACCACGCAGCCAAGUCCUAAGUCAACAGAUCUUCUGUUGAUAUGGAUGCAGUUCACAGACUAAAUGUCGGUCGGGGAAGAUGUAUUCUUCUCAUAAGAUAUAGUCGGACCUCUCCUUAAUGGGAGCUAGCGGAUGAAGUGAUGCAACACUGGAGCCGCUGGGAACUAAUUUGUAUGCGAAAGUAUAUUGAUUAGUUUUGGAGUACUCGUGGUCG
In short: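 Library with all eight P1ex-region intron nucleotides randomised, intron inside the knt kanamycin-resistance gene on pET-22b(+), in E. coli BL21(DE3). Cells grew overnight at 37°C or 30°C on LB agar with or without 25 μg/mL kanamycin (plus 100 μg/mL carbenicillin, 50 μM IPTG, 0.2% rhamnose), in six replicate transformations. Pooled colonies were amplicon-sequenced on Illumina HiSeq 2500. DiMSum fitness is the error-weighted combination of wild-type-normalised replicate fold changes, kanamycin versus none.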

| Sequence | self-splicing fitness (ln) (30 °C) | self-splicing fitness (ln) (37 °C) |
| --- | --- | --- |
| UUUAAGCAAUAUUACGAUUU | -1.92 ± 0.16 | -0.754 ± 0.13 |
| GUUGAGCAAUAUUACGACUU | -2.53 ± 0.2 | -1.92 ± 0.21 |
| GGGCAGCAAUAUUACGCCGG | -1.51 ± 0.11 | 0.118 ± 0.14 |
| UUCUAGCAAUAUUACGUCCA | -2.13 ± 0.19 | -0.134 ± 0.17 |
| GAAUAGCAAUAUUACGUCAC | -2.47 ± 0.17 | -1.31 ± 0.17 |
| AGACAGCAAUAUUACGCCAA | -2.35 ± 0.15 | -1.1 ± 0.12 |
| AUAGAGCAAUAUUACGAACC | -2.16 ± 0.14 | -1.02 ± 0.14 |
| GUAGAGCAAUAUUACGCGCC | -3.54 ± 0.29 | -1.67 ± 0.38 |
| UAGAAGCAAUAUUACGGUUG | -1.79 ± 0.089 | -0.948 ± 0.11 |
| UGUUAGCAAUAUUACGAGGA | – | -1.92 ± 0.21 |
| CCACAGCAAUAUUACGAGGU | -4.41 ± 0.2 | -2.81 ± 0.16 |
| AAGUAGCAAUAUUACGGAUU | -0.677 ± 0.092 | -0.751 ± 0.11 |
| GUAAAGCAAUAUUACGCAGC | -2.42 ± 0.22 | -1.25 ± 0.2 |
| CUUUAGCAAUAUUACGUUCG | -1.09 ± 0.13 | 0.499 ± 0.17 |
| AUCGAGCAAUAUUACGAGCU | -2.36 ± 0.4 | – |
| AGCCAGCAAUAUUACGCGGA | -3.48 ± 0.19 | -2.23 ± 0.12 |
| CUUUAGCAAUAUUACGAUUC | -3.16 ± 0.2 | -2.6 ± 0.33 |
| CUUGAGCAAUAUUACGACAC | – | -3.08 ± 0.47 |
| UAGUAGCAAUAUUACGUAUU | -4.59 ± 0.36 | -1.96 ± 0.2 |

| Sequence | self-splicing fitness (ln) (30 °C) | self-splicing fitness (ln) (37 °C) |
| --- | --- | --- |
| GAGGAGCAAUAUUACGGAAA | -3.13 ± 0.16 | -2.94 ± 0.26 |
| UGCUAGCAAUAUUACGGAUG | -0.534 ± 0.086 | -0.268 ± 0.1 |
| UGCAAGCAAUAUUACGCGGG | -3.73 ± 0.27 | -2.42 ± 0.22 |
| AACUAGCAAUAUUACGGGCC | -1.81 ± 0.12 | -1.36 ± 0.14 |
| CCUGAGCAAUAUUACGUAAU | -2.24 ± 0.2 | -2.6 ± 0.25 |
| UUCCAGCAAUAUUACGCCCG | -1.33 ± 0.15 | -1.23 ± 0.17 |
| CGACAGCAAUAUUACGACUG | -1.32 ± 0.089 | -0.0407 ± 0.14 |
| UCAGAGCAAUAUUACGCGGG | -2.22 ± 0.14 | -1.99 ± 0.23 |
| ACUUAGCAAUAUUACGUAAG | -0.131 ± 0.081 | -0.844 ± 0.1 |
| ACUGAGCAAUAUUACGGCCU | -2.58 ± 0.23 | -2.12 ± 0.25 |
| CCUCAGCAAUAUUACGAGUU | -2.31 ± 0.1 | -1.11 ± 0.093 |
| AUGAAGCAAUAUUACGCCGG | -0.936 ± 0.11 | 0.108 ± 0.18 |
| GAGAAGCAAUAUUACGGGUA | -2.02 ± 0.15 | -2.14 ± 0.16 |
| UGGCAGCAAUAUUACGGAUG | -1.79 ± 0.17 | -0.817 ± 0.19 |
| CAAUAGCAAUAUUACGUUAA | -2.95 ± 0.18 | -2.8 ± 0.23 |
| AGCUAGCAAUAUUACGCGGU | -4.02 ± 0.27 | -1.71 ± 0.13 |
| UGGCAGCAAUAUUACGGUGA | -0.428 ± 0.097 | 0.214 ± 0.12 |
| GCCGAGCAAUAUUACGAUGU | -0.691 ± 0.057 | -0.267 ± 0.069 |
| GCCUAGCAAUAUUACGAAUU | -2.09 ± 0.12 | -0.976 ± 0.11 |
